Usually Kd stands for the free concentration of one partner at which half of the binding sites on the other are occupied at equilibrium, for simple one-to-one binding. In general, EC50 refers to the concentration at which the effect is half-maximal.

The results in this text go back to patent US20230399397A1 (EWHA UNIVERSITY INDUSTRY COLLABORATION FOUNDATION, published 2023).

Where only a bound is given, the exact number is not on record here.

Experiment [1] addresses T1, mouse OSCAR-Fc (fusion of ectodomain of mouse-derived OSCAR protein and Fc domain of human immunoglobulin … (mouse)).
T1 construct: also called mOSCAR-Fc; mOSCAR
Put plainly: bio-layer interferometry (Octet), antibody as ligand on the sensor, mOSCAR as analyte. In general terms: BLI is a label-free optical method that tracks binding on a fibre tip over time.

The target in experiment [2] is T2, human OSCAR-Fc (fusion of ectodomain of human-derived OSCAR protein and Fc domain of human immunoglobulin … (human)).
T2 construct: also called hOSCAR-Fc; hOSCAR
Put plainly: serial dilution ELISA, 4-parameter logistic curve fit. In general terms: In an ELISA, binding on a coated surface is turned into a signal by an enzyme label.

The target in experiment [3] is T2, human OSCAR-Fc (fusion of ectodomain of …). Put plainly: BLI (Octet); BLI (Octet); mother clone D11. Here is the method: Therefore, based on intensities of the ELISA signals, expression levels, stability, and activity of the clones whose affinity was matured from the clone D11, D11-B9 was selected, and relative affinity thereof to OSCAR was re-evaluated by way of serial dilution. […] To measure a dissociation constant more accurately, analysis was performed by measuring bio-layer interferometry (BLI) signals using an Octet device. […] In the same manner as in the serial dilution ELISA, the clone D11 seems to have a lower affinity to hOSCAR. A dissociation constant was about 5.6 nM, and a lower response signal was measured (FIG. 10).

For experiment [4] the target is unchanged. Put plainly: bio-layer interferometry (Octet), antibody as ligand on the sensor, hOSCAR as analyte.
For experiment [5] the target is unchanged. Put plainly: serial dilution ELISA, 4-parameter logistic curve fit; first serial dilution ELISA of the IgG clones (FIG. 9). Here is the method: Next, the EC₅₀ values of the clones were calculated using a 4-parameter logistic curve fit from serial dilution ELISA.
Experiment [6] addresses T1, mouse OSCAR-Fc (fusion of ectodomain of …). Put plainly: serial dilution ELISA (re-evaluation); re-evaluation by serial dilution (FIG. 10); mOSCAR.
Experiment [7] shares this target. Put plainly: BLI (Octet); BLI (Octet); mOSCAR.
The target in experiment [8] is T2, human OSCAR-Fc (fusion of ectodomain of …). Put plainly: BLI (Octet); BLI (Octet); hOSCAR.
The target is the same in experiment [9]. Put plainly: serial dilution ELISA (re-evaluation); re-evaluation by serial dilution (FIG. 10); hOSCAR.
Experiment [10] shares this target. Put plainly: BLI (Octet).
Experiment [11] addresses T1, mouse OSCAR-Fc (fusion of ectodomain of …). Put plainly: BLI (Octet).
Experiment [12] shares this target. Put plainly: ELISA, periplasm extract of the scFv clone on coated mOSCAR-Fc. Here is the method:
(§1) To select anti-OSCAR antibodies via ELISA screening, first, 200 μL of SB-carbenicillin was added to each well of a 96-well microplate, and E. coli colonies obtained in the third and fourth panning processes were added thereto, followed by incubation at 37° C. for 2 hours while stirring. Using a plate replication pin tool, the cultured clones were transferred to a new microplate, IPTG was added to each well in which E. coli was cultured to a final concentration of 1 mM, followed by incubation […] while stirring. Then, the microplate was centrifuged and the supernatant discarded, and then precipitated E. coli was suspended in 40 μL of ice-cold 1× TES (20% sucrose, 50 mM Tris, 1 mM EDTA, pH 8.0) per well. Then, […] was added to each well, mixed well, and left on ice for 30 minutes, followed by centrifugation of the microplate to obtain a periplasm extract.
(§2) Subsequently, 25 μL of human and mouse OSCAR-Fc and human IgG each diluted in PBS to a concentration of 2 μg/mL were added to each well of a 96-well plate for ELISA and left to stand at 37° C. for 1 hour such that an antigen was adsorbed onto the surface of the well. […] Once a blue color was clearly developed, reaction was terminated by adding 25 μL of 1 N aqueous sulfuric acid solution to each well, and a color change signal was measured using absorbance at a wavelength of 450 nm. […]

For experiment [13], the target named is T2, human OSCAR-Fc (fusion of ectodomain of …). Put plainly: ELISA, periplasm extract of the scFv clone on coated hOSCAR-Fc. As to the method:
as §1, §2

For experiment [14] the target is unchanged. Put plainly: competitive ELISA, IgG premixed with OSCAR-Fc, on coated collagen. Here is the method:
(§3) Specifically, 25 μL of collagen (collagen type I from rat tail) diluted with PBS to a concentration of 2 μg/mL was added to an ELISA plate and adsorbed onto the ELISA plate by leaving to stand at 4° C. overnight. The surface onto which collagen was not adsorbed was protected by using a 3% milk powder solution. Subsequently, the purified anti-OSCAR IgG antibody and human or mouse OSCAR-Fc [fusion of ectodomain of human and mouse-derived OSCAR protein and Fc domain of human immunoglobulin gamma 1 (human IgG1)][human-derived: hOSCAR-Fc (SEQ ID NO: 4) and mouse-derived: mOSCAR-Fc (SEQ ID NO: 5)] were mixed to have concentrations of 2 μg/mL and 1 μg/mL, respectively, for 1.5 hours to bind to each other. Then, the mixture was added to the collagen-adsorbed ELISA plate from which the powdered milk solution was removed in an amount of […] and left to stand at room temperature for 1.5 hours. Subsequently, the plate was washed three times with PBST to remove unreacted antibodies and OSCAR-Fc, and 25 μL of an HRP-conjugated anti-human IgG antibody diluted at 1:3,000 was added to each well and left to stand at room temperature for 1 hour to detect OSCAR-Fc bound to collagen. […] Absorbance was measured at 450 nm to analyze the degree of OSCAR-collagen binding (FIG. 2).

The target in experiment [15] is T1, mouse OSCAR-Fc (fusion of ectodomain of …). The experiment is described as above. As to the method:
as §3

B1: anti-OSCAR antibody D11 (IgG) (antibody, V domains shown)
VH: EVQLLESGGGLVQPGGSLRLSCAASGFTFSDYYWTWVRQAPGKGLEWVSGSPVFGAANYAQNFQGRFTISRDNSKNTLYLQMNSLRAEDTAVYYCAKAGFTGGHFDIWGQGTLVTVSS
VL: QSVLTQPPSASGTPGQRVTISCSGSSSNIGNNYVSWYQQLPGTAPKLLIYGNSNRPSGVPNRFSGSKSGTSASLAISGLRSEDEADYYCQSYDSSSWLFGGGTKLTVLG
notes: also called clone D11; mother-clone D11
Consider B1, for which the equilibrium dissociation constant (Kd) in experiment [1] is 2.87 nM; in experiment [3], approximately 5.6 nM; in experiment [4], 5.61 nM. Besides, the EC50 in experiment [2] was found to be 520 nM.

B2: anti-OSCAR antibody D11-B9 (IgG) (antibody, V domains shown)
VH: EVQLLESGGGLVQPGGSLRLSCAASGFTFSDYYWTWVRQAPGKGLEWVSGSPVFGAANYAQNFQGRFTISRDNSKNTLYLQMNSLRAEDTAVYYCAKAGIPGHFDIWGQGTLVTVSS
VL: B1 VL
notes: also called clone D11-B9; D11-69 (misprint in the text)
As for B2, the Kd in [1] came out at 0.222 nM; in experiment [7], 0.2 nM; in [4], 0.41 nM; in experiment [8] it was 0.4 nM. Also, the EC50 in [5] came out at 1.5 nM; in [6], 36.8 nM; in experiment [9], 36.8 nM. In addition, the “fold affinity against clone D11” value was 10 times in experiment [10] and not below 10 times in experiment [11].

B3: anti-OSCAR scFv B4 (scFv, V domains shown)
VH: EVQLLESGGGLVQPGGSLRLSCAASGFTFSDYAMSWVRQAPGKGLEWVSGIYHGGGNIYYADSVKGRFTISRDNSKNTLYLQMNSLRAEDTAVYYCARAPDEFDYWGQGTLVTVSS
VL: QSVLTQPPSASGTPGQRVTISCSGSSSNIGNNSVTWYQQLPGTAPKLLIYYNSHRPSGVPDRFSGSKPGTSASLAISGLRSEDEADYYCGAWDSSLNGYVFGGGTKLTVL
notes: Single-chain Fv; Tested as periplasm extract
As to B3, the binding result in [12] and in experiment [13] was “binds” each time.

B4: anti-OSCAR antibody B4 (IgG) (antibody, V domains shown)
VH: B3 VH
VL: QSVLTQPPSASGTPGQRVTISCSGSSSNIGNNSVTWYQQLPGTAPKLLIYYNSHRPSGVPDRFSGSKPGTSASLAISGLRSEDEADYYCGAWDSSLNGYVFGGGTKLTVLG
notes: also called clone antibody B4
Consider B4, for which the binding result in experiment [14] and in [15] was “binds” each time.
